The values below come from patent US20180355043A1 (Janssen / Centocor, published 2018).

In assay [1] the target is T1, DR4G99: Human HLA-DRA1*01:02/DRB1*01:01 ECD with collagen peptide CII_1236-1249 (human).
T1 construct: also called DRG99
The assay can be described thus: MSD ECL; antigen coated; mAb 0.2 µg/ml.

In assay [2] the target is DR4G90: Human HLA-DRA1*01:02/DRB1*04:01 ECD with collagen II peptide CII_1236-1249 (human). Briefly: MSD ECL; antigen coated; mAb 0.2 µg/ml.
Assay [3] addresses T2, DR4G113: Human HRA-DPA1*03/DPB1*04:01 ECD with NY-ESO peptide NY-ESO_157-169 (human).
T2 construct: also called HLA-DP; DP4:01
T2 MHC II alpha: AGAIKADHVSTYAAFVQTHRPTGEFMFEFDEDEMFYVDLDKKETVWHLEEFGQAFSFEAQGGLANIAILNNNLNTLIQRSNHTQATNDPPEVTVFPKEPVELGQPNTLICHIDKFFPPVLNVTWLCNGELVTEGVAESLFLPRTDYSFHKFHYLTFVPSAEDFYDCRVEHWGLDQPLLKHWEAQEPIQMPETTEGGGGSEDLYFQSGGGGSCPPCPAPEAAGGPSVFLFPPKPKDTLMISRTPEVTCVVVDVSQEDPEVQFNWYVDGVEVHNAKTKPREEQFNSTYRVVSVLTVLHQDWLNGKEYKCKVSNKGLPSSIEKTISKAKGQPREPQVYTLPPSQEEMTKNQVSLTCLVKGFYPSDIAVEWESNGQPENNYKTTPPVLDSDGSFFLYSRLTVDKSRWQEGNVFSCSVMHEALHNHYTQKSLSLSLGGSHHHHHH
T2 MHC II beta: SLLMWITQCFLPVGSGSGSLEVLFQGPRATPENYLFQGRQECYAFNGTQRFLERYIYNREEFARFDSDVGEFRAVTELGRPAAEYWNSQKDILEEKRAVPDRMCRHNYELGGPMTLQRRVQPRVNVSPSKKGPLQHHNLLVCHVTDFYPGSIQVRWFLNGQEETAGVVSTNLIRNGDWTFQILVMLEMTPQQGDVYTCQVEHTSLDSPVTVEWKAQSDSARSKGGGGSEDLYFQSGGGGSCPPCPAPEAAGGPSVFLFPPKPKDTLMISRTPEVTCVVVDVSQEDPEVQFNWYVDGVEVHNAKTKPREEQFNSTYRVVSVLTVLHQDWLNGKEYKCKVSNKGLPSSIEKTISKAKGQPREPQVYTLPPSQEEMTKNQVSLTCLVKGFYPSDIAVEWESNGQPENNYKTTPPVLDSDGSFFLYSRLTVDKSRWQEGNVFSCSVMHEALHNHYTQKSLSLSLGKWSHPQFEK
Briefly: MSD ECL; antigen coated; mAb 5 µg/ml.

For assay [4], the target named is T3, DR4G111: Human HLA-DQA1*01:02/DQB1*06:02 ECD with insulin peptide INS_1-15 (human).
T3 construct: also called DQB6:02
The assay can be described thus: MSD ECL; antigen coated; mAb 5 µg/ml.

The target of assay [5] is T2, DR4G113: Human HRA-DPA1*03/DPB1*04:01 …. Briefly: MSD ECL; antigen coated.
Assay [6] has as its target T3, DR4G111: Human …. The assay can be described thus: MSD ECL; antigen coated.

B1: DR4B78 (antibody, human IgG2, kappa, V domains shown)
VH: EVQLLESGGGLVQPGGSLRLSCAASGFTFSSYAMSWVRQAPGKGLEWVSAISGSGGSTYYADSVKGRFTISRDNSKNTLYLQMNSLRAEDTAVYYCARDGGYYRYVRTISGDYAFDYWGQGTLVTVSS
VL: EIVLTQSPATLSLSPGERATLSCRASQSVSSYLAWYQQKPGQAPRLLIYDASNRATGIPARFSGSGSGTDFTLTISSLEPEDFAVYYCQQRSNWPLTFGQGTKVEIKR
notes: also called VH DR4H62 / VL PH9L3
As to B1, the ECL signal in assay [1] worked out at 1.08e+06 ECL; in assay [2], 1.14e+06 ECL; in assay [3], 930 ECL; in assay [4] it was 4250 ECL. For the same molecule, the binding result in assay [5] and in assay [6] was “no binding (tested: 5 µg/ml)” each time.

B2: DR4B22 (antibody, human IgG2, kappa, V domains shown)
VH: EVQLLESGGGLVQPGGSLRLSCAASGFTFSSYAMNWVRQAPGKGLEWVSAISGSGGYTNYADSVKGRFTISRDNSKNTLYLQMNSLRAEDTAVYYCARDGGYYRYVYRYPGDYAFGYWGQGTLVTVSS
VL: EIVLTQSPATLSLSPGERATLSCRASQSVSSYLAWYQQKPGQAPRLLIYDASNRATGIPARFSGSGSGTDFTLTISSLEPEDFAVYYCQQRSNWPLTFGQGTKVEIKR
notes: also called VH DR4H16 / VL PH9L3
Consider B2, for which the ECL signal was 1.03e+06 ECL in assay [1], 1.1e+06 ECL in assay [2], 2180 ECL in assay [3] and 16300 ECL in assay [4]. The binding result in assay [5] and in assay [6] was “no binding (tested: 5 µg/ml)” throughout.

B3: DR4B38 (antibody, human IgG2, kappa, V domains shown)
VH: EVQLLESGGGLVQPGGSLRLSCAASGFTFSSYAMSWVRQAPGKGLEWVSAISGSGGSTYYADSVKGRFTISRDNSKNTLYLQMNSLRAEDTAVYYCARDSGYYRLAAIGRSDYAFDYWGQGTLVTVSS
VL: EIVLTQSPATLSLSPGERATLSCRASQSVSSYLAWYQQKPGQAPRLLIYDASNRATGIPARFSGSGSGTDFTLTISSLEPEDFAVYYCQQRSNWPLTFGQGTKVEIKR
notes: also called VH DR4H56 / VL PH9L3
As to B3, the ECL signal in assay [1] was 1.21e+06 ECL; in assay [2], 1.24e+06 ECL; in assay [3], 148 ECL; in assay [4], 100 ECL. Besides, the binding result in assay [5] and in assay [6] was “no binding (tested: 5 µg/ml)” each time.

B4: DR4B70 (antibody, human IgG2, kappa, V domains shown)
VH: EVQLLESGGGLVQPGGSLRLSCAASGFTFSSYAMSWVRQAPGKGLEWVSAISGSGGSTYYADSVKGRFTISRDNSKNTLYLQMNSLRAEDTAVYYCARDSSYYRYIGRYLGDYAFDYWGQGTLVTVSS
VL: EIVLTQSPATLSLSPGERATLSCRASQSVSSYLAWYQQKPGQAPRLLIYDASNRATGIPARFSGSGSGTDFTLTISSLEPEDFAVYYCQQRSNWPLTFGQGTKVEIKR
notes: also called VH DR4H29 / VL PH9L3
With B4, the ECL signal amounted to 1.08e+06 ECL in assay [1], 1.13e+06 ECL in assay [2], 1270 ECL in assay [3] and 3220 ECL in assay [4]. Also, the binding result in assay [5] and in assay [6] was “no binding (tested: 5 µg/ml)” each time.
